Assay results published in publication PMC12058244, “Design and Synthesis of ^68Ga‐Labeled Peptide‐Based Heterodimers for Dual Targeting of NTS1 and GRPR” (Chemmedchem, 2025).
Read-outs that look alike come from different tables or passages of the source.

Columns and labels:
NTS1 = settings: cited from earlier work
Method: The design of novel heterodimers was based on SAR studies. […] For this reason, the NT analogue JMV 438 ([Lys^8–Lys^9]NT[8–13]) was widely studied and validated as a positive control (NTS1 K i=4.0 nM, Chart 1).[19] Recently, in the attempt to improve the binding affinity towards NTS1, lipophilic residues were incorporated in the NT[8–13] sequence.[20] Among the new analogues, JMV 2007 (Chart 1), in which a trimethylsilylala ...

[1] = Octanol/water partition coefficient (LogD7.4); format: physicochemical
Method: Determination of the Octanol/Water Partition Coefficient (LogD7.4) LogD determination was performed in triplicate and repeated over three radiolabelings. Approximately 3.7 MBq of the ^68Ga‐radiolabeled peptide were added to qsp 500 μL of PBS (Gibco, France, pH=7.4) and 500 μL of octanol (Sigma Aldrich, USA) in microcentrifuge tubes. Tubes were shaken then vortexed and centrifuged at room temperature (3 min, 4000 rpm). 100 μL of each layer were sampled in separate test tubes and measured in a gamma‐counter (Wizard2, PerkinElmer, USA). LogD7.4 value was obtained by calculating the log10 of the ratio between the organic phase activity (cpm) and the aqueous phase activity (cpm). Both activities were decay‐corrected.

For “[Lys^8‐Lys^9‐TMSAla^13]NT[8–13] [JMV 2007, NT[8-13] analogue with TMSAla at position 13]”, the IC50 (NTS1) is listed as 0.02 nM.
With `CC[C@H](C)[C@H](NC(=O)[C@H](Cc1ccc(O)cc1)NC(=O)[C@@H]1CCCN1C(=O)[C@H](CCCCN)NC(=O)[C@H](CCCCN)NC(=O)CCNC(=O)[C@H](CCC(=O)NCCC(=O)NCCC(=O)N[C@H](Cc1ccccc1)C(=O)N[C@@H](CCC(N)=O)C(=O)N[C@@H](Cc1c[nH]c2ccccc12)C(=O)N[C@@H](C)C(=O)N[C@H](C(=O)NCC(=O)N[C@@H](Cc1c[nH]cn1)C(=O)N[C@@H](CC(C)C)[C@@H](O)CC(=O)N[C@@H](CC(C)C)C(N)=O)C(C)C)NC(=O)CCNC(=O)CN1CCN(CC(=O)O)CCN(CC(=O)O)CCN(CC(=O)O)CC1)C(=O)N[C@@H](CC(C)C)C(=O)O` [[^68Ga]Ga‐JMV 7266, metal not drawn] the logD ([1]; pH 7.4) was -2.62 ± 0.13.
In the case of [Lys^8–Lys^9]NT[8–13] [JMV 438], the Ki (NTS1) is given as 4 nM.
`CC[C@H](C)[C@H](NC(=O)[C@H](Cc1ccc(O)cc1)NC(=O)[C@@H]1CCCN1C(=O)[C@H](CCCCN)NC(=O)[C@H](CCCCN)NC(=O)CCNC(=O)CCNC(=O)[C@H](CC(C)C)NC(=O)C[C@H](O)[C@H](CC(C)C)NC(=O)[C@H](Cc1c[nH]cn1)NC(=O)CNC(=O)[C@@H](NC(=O)[C@H](C)NC(=O)[C@H](Cc1c[nH]c2ccccc12)NC(=O)[C@H](CCC(N)=O)NC(=O)[C@@H](Cc1ccccc1)NC(=O)CCNC(=O)CCNC(=O)CN1CCN(CC(=O)O)CCN(CC(=O)O)CCN(CC(=O)O)CC1)C(C)C)C(=O)N[C@@H](C[Si](C)(C)C)C(=O)O` [[^68Ga]Ga‐JMV 7253, metal not drawn] showed a logD ([1]; shake-flask octanol/PBS (Gibco) pH 7.4, 500 μL each, ~3.7 MBq 68Ga-peptide, room temperature, centrifuged 3 min 4000 rpm, gamma-counter, triplicate repeated over three radiolabelings, mean±SD, read-out: LogD7.4) of -2.46 ± 0.07.
For `CC[C@H](C)[C@H](NC(=O)[C@H](Cc1ccc(O)cc1)NC(=O)[C@@H]1CCCN1C(=O)[C@H](CCCCN)NC(=O)[C@H](CCCCN)NC(=O)CCNC(=O)CCNC(=O)[C@H](CC(C)C)NC(=O)C[C@H](O)[C@H](CC(C)C)NC(=O)[C@H](Cc1c[nH]cn1)NC(=O)CNC(=O)[C@@H](NC(=O)[C@H](C)NC(=O)[C@H](Cc1c[nH]c2ccccc12)NC(=O)[C@H](CCC(N)=O)NC(=O)[C@@H](Cc1ccccc1)NC(=O)CCNC(=O)CCNC(=O)CN1CCN(CC(=O)O)CCN(CC(=O)O)CCN(CC(=O)O)CC1)C(C)C)C(=O)N[C@@H](CC(C)C)C(=O)O` [[^68Ga]Ga‐JMV 7110, metal not drawn], the logD ([1]; pH 7.4) was -2.74 ± 0.21.
